We go through one molecule from EP4785961A1 (Fortvita Biologics Inc., dated 2025).

Assay [1] deals with HER3 expressed on tumor cell lines (NUGC4, HCC1569, NCI-H508, SW620, HCC827 HER3OX) (UniProt P21860 20-1342, limits assumed). The experiment in a line: cell-based or functional assay.
Assay [2] deals with T1, monkey HER3 (Sino Biological, 90043-K08H) (cynomolgus monkey, UniProt G7PIG5 20-643).
T1 construct: Bought antigen; also called Cynomolgus monkeys
The experiment in a line: BLI (Fortebio Octet Red96e), AHC sensors, HER3-MB3 and antigen each at 100 nM. (In general: Biolayer interferometry detects binding as a change in optical thickness at a sensor tip.)

Assay [3] has as its target T2, mouse HER3 (Sino Biological, 51003-M08H) (mouse, UniProt Q61526 20-641).
T2 construct: Bought antigen; also called Mice
Described as above.

Assay [4] concerns the target T3, rat HER3 (Sino Biological, 80111-R08H) (rat, UniProt Q62799 20-641).
T3 construct: Bought antigen
The assay is described as above.

In assay [5] the target is T4, human HER3 (Sino Biological, 10201-H08H) (human, UniProt P21860 20-643).
T4 construct: Bought antigen; also called ErbB3
Described as above.

T3 sequence (Q62799 20-641 limits assumed, stated change not applied): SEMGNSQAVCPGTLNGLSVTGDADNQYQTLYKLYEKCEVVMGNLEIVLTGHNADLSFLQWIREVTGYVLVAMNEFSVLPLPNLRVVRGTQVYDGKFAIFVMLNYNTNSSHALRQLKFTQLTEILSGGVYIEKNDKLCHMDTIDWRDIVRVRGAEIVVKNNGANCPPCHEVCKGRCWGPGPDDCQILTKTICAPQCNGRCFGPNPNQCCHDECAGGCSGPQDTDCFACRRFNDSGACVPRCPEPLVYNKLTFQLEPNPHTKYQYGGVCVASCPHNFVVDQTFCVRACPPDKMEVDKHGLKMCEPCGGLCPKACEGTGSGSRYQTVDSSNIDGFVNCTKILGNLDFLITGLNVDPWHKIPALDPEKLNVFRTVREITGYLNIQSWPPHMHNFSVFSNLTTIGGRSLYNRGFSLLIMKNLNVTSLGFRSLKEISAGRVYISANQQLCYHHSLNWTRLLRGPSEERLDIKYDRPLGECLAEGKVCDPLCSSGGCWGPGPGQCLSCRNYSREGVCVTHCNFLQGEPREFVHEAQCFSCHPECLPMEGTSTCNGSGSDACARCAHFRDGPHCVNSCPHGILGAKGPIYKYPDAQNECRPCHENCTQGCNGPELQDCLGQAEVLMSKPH
T1 sequence (G7PIG5 entry or part of it K08H K08H): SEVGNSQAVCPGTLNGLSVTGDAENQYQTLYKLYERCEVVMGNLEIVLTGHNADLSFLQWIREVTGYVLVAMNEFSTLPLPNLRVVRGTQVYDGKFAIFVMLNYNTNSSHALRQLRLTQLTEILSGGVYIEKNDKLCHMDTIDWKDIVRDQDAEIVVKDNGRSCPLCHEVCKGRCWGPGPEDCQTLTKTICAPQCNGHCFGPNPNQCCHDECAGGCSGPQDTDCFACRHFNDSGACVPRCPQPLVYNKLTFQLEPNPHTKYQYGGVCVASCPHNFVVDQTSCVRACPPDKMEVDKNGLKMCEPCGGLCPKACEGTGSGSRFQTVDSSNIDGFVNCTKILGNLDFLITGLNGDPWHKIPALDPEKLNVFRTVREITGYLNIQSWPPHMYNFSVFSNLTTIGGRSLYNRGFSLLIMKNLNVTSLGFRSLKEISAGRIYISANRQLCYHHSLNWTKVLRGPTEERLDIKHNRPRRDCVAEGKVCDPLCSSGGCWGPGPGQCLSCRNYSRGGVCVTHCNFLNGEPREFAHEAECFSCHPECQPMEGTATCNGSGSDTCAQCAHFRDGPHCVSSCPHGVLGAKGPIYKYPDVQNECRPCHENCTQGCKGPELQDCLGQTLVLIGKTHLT
T2 sequence (Q61526 20-641 limits assumed, stated change not applied): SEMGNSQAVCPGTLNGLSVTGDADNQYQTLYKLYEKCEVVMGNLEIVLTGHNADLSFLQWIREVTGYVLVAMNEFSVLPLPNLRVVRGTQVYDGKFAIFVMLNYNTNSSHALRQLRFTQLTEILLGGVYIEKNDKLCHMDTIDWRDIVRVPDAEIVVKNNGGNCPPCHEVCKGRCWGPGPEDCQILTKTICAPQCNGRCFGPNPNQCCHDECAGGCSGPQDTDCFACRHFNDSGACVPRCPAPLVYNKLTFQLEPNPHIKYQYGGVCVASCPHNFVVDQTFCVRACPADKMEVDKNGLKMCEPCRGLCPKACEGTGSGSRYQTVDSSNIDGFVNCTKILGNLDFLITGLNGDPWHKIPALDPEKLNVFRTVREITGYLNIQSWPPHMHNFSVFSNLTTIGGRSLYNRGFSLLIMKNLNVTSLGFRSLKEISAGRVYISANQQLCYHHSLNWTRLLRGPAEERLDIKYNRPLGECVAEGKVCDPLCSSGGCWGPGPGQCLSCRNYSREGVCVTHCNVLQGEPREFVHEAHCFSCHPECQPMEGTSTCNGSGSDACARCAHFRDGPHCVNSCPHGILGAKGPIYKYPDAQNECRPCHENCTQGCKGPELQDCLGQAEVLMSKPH

B1: HER3-MB3 (patritumab-MB3) antibody-drug conjugate (antibody, human IgG1, kappa, V domains shown)
VH: QVQLQQWGAGLLKPSETLSLTCAVYGGSFSGYYWSWIRQPPGKGLEWIGEINHSGSTNYNPSLKSRVTISVETSKNQFSLKLSSVTAADTAVYYCARDKWTWYFDLWGRGTLVTVSS
VL: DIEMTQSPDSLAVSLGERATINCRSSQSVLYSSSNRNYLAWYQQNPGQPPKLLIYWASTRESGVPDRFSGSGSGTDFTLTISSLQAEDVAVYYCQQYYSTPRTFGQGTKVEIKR
modifications: drug-linker MB3 (payload MB1) conjugated to cysteines after TCEP reduction; conjugated positions not given; drug-linker MB3 (payload MB1) conjugated to cysteines after TCEP reduction; n mainly 8, average DAR 7.56; conjugated positions not given
notes: Antibody-drug conjugate; also called HER3-ADC
For orientation: Kd means the equilibrium constant for the complex coming apart. By koff is commonly meant the rate constant with which the complex falls apart. By kon is commonly meant the rate constant with which the complex forms. For the molecule B1, in assay [1], the “IC50 of in vitro killing, HCC1569 tumor cell line (3D culture, 7 days, Cell-Titer)” value turned out to be 0.07 nM and the “IC50 of in vitro killing, NUGC4 tumor cell line (3D culture, 7 days, Cell-Titer)” value is 0.55 nM. In assay [2], this molecule returned a Kd of 2.55 nM, a koff of 0.000562 s⁻¹ and a kon of 221000 M⁻¹ s⁻¹. For the same molecule, in assay [3], binding was put at a Kd of 45.8 nM, the koff is 0.00989 s⁻¹ and the kon stood at 216000 M⁻¹ s⁻¹. In assay [4], this molecule had a Kd of 38.8 nM, a koff of 0.00615 s⁻¹ and a kon of 158000 M⁻¹ s⁻¹. In assay [5], this molecule registered a Kd of 2.42 nM, a koff of 0.000463 s⁻¹ and an association rate constant (kon) of 191000 M⁻¹ s⁻¹.
